From a protein production outcome set (Wang et al. 2014)

assay: label from the status in PepcDB records
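Note: failed if final PepcDB status was selected cloned or expressed and not failed if soluble or beyond.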

Sequence	protein production
QGYQVTKLYVMDRDGTNARLLTEGFDRDVQNPTFTADGEHIVFRYVDEGSTKIGRVALDGGRRVVAEHVGGTSIGRPYTSGSFSLASNGRVAFTHATPQRPADVAVAQAGREAQVLTALNDDLFGQVDLGSVEQITYESSHDGRTIEGWIVTPPGFDASQEYPLVLEIHGGPFASYGPYFSAEVQLYAAAGYVVLYTNPRGSTSYGQDFGNAIHHDYPGHDYDDLMSGVDAVLERGYVDADRLYVTGGSGGGVLTSWIVGHTDRFRAAVAAKPVINWYSWALTADMYPYGVKYWFPGLPWNHEEHYMDRSPLSYVDNVTTPTMLLTGANDYRTPMSESEQFYQALKLREVETALVRVPGASHSIAARPSHLAAKAAHVLEWFRRHGGPTPEQ	failed
QIPAERDREPSKLKRSYSSPDITQAIQEEEKRKPTVTPTVNRENKPTCYPKAEISRLSASQIRNLNPVFGGSGPALTGLRNLGNTCYMNSILQCLCNAPHLADYFNRNCYQDDINRSNLLGHKGEVAEEFGIIMKALWTGQYRYISPKDFKITIGKINDQFAGYSQQDSQELLLFLMDGLHEDLNKADN	failed
QISTPVIRVWDGILALPIIGTLDSSRTQVVMESLLQEIVDTGSSIAILDISGVPAVDSLVAQHLIKTVSATRLMGAECIISGIRPEIAQTVVHLGIDLSTIITKATLASALKTA	failed
QKRPLIMIGGSSSTRTDFDDIVRSLNEQQHHPLITLTVKANQKLAFKEKRVENTNLNDALIVIFFEDSTDSTENIMTQTNGLAKAIRYLQRHQHLTTANALGYSNGGLIWSRYLAGLSSSKPLAVHDLMLIGTPFLGTDAAH	failed
QLGGDMKTIAIADRTGEYEQLFKENDEFRFVHAEKTAEEYRKMGADKSGIDAVLEIRQDLLEDPNAVAIYGYKQLPASVSNHISRILSDYLSDKKIASYNIPDIKQILADSKIELSVHTYKWSEDGTNERTSGELASGIS	not failed
QLIDIGVNLTNSSFHDQQAAIVERALEAGVTQMLLTGTSLAVSEQALELCQQLDASGAHLFATAGVHPHDAKAWDTDSERQLRLLLSEPRVRAVGECGLDFNRDFSPRPLQEKALEAQLTLAAQLRLPVFLHERDASERLLAILKDYRDHLTGAVVHCFTGEREALFAYLDLDLHIGITGWICDERRGTHLHPLVGNIPEGRLMLESDAPYLLPRSLRPKPKSGRNEPAFLPEVLREVALHRGESAEHTAAHTTATARDFFQLP	not failed
QQAIADQLLEMILQSQDLHNAYRLVVEGLQRGLGVDRVLLVQNAVFPNRQSRLVAQAIAPARDIMLLDEPCADCRWLHLLGQLPHYGLWTVWEGEGEFVQLDPVQGEFCRTLGIKSLLHLPLVINQRHWGVLSLQYLHQARPWPLEDQQFAQRIAHLFCLGLMKTELWIHCQNHKNALQTVVAEGQ	failed
QQNIVLSIQDRLQQLPKSERKIAEYILKNTETVISMNAQELAKQAGSSPAAIIRFCHSMDVNGFTELKLLLSANLGQMKQQMYTEVTKGESTADIKQKLQARFVHVVERSGQTLE	not failed
QRLSNSIINSLASGEGVVEALRTMKNDGVISGMFKLEQGKFNRSIENLVRTEYSHFAVEGVRKSLKDIGVKQTQSWSAEDERVCSICGGRHGKEIKDDWHPPYHGRCRCTEI	failed
QSQGGGSVTKKRKLESSESRSSFSQHARTSGRVAVEEVDEEGKFVRLRNKSNEDQSMGNWQIRRQNGDDPLMTYRFPPKFTLKAGQVVTIWASGAGATHSPPTDLVWKAQNTWGCGSSLRTALINSTGEEVAMRKLVR	not failed
QTLLQANPDPVLVADAETGKIVEANAAATGLLGRPREEIIGAHQTDLHPSGRAEAYASLFRRSLDEDGPMRALPDGTQIEVVTDEGTTVPVEVNATTVDLPDGRVVYGVFRDVSE	failed
QTPVYLDTSKPIEERVKDALSRMTLEEKVKMTHAQSKFSSPGVPRLGIPEVWATDGPHGIRPEVLWDEWDQAGWTNDSCIAYPALTCLSATWNPEMSYLYGKSIGEEARYRKKDILLGPGVNIYRTPLNGRNFEYMGEDPYLSSMMVVPYIKGVQENGVAACVKHYALNNQEFNRHTTNVHLSDRALYEIYLPAFKAAVQEGGAWAIMGAYNLYSFSEDTDSGKLYKTQHACHNKRLLQDILRKEWGFDGVVVSDWGGVHDTFQAISNGLDMEFGSWTNGLSAGTRNAYDNYYLAHPYLKLIQDGTVGTKELDEKVSNILRLIFRTSMNPH	failed
QTQALFMNTRRAVFKERALRQALGEMFDFEWTNRALFSNSYLRSRSYYPNSEFAASGVPEGQEWLYLSPYRKQLPAQLFKQPFSLPTTEGRGIPRETLRHALGLLADAGWKLSGDRLLNKKGEPLRFEILLVNPSLERILQPYRENLASIGIDARLRTVDRAQYKQRLDQFDYDMILMTLPQTLSPGLEQWQYFHSSQVKVKGSKNYAGIANPVVDAMLNRLLGAHSRDEQVAAARALDRTLLWQYYSIPNWYLN	failed
QTVNHELQSKVSELSEANNDMKNLLNSTDIATLFLDDSLNIRRFTTRTASIIKLIASDIGRPITDIVTDLHYPALADDAQEVLRTLIFREKQVSANNDRWFSVKIMPYRTQENKIVGLVITFSDITTSKKLEA	failed
QVGIYRTRTCDGLILNANQRFADLFGFDSPQEIIGIEHTIGYWVNPSDRQQGIEVMKRDGEVRSYEAQMRKRDGTVFWGLFSSYLNAGDDYIEGVIADISDVYDELRLRKQAEVALQASEAELRSLFSAIPDPLCVVTAQ	failed
QVKRQTRRVASATYMVSLLDSQIDSPATLFIDEQALEAAKRRSYQRGVLEGSEMSRVFSWMRPNDLIWTYWINNYLLGKSPPPFDILYWNNDTTRLPAALHGDLLDFFKHNPLSHAGGLEVCGTPIDLQKVTVDSFSVAGINDHITPWDSVYRSTLLLGGDRRFVLANSGHVQSILNP	not failed
QVYKAKFGTPNRGWVIIVHGLGEHSGRYSKLVSMLVNEGYAVYTFDWPGHGKSPGKRGHTSVEEAMEIIDFIIEEINDKPFLFGHSLGGLTVIRYAETRPEKIRGVIASSPALAKSPKTPSFMVALAKILGVLLPSLTLSNGIDPNLLSRNPDAVKRYIEDPLVHDRISAKLGRSIFKNMDLAHREAHKIKVPVLLLVGTGDVITPPEGARKLYGEIKVEDKEIVEFEGAYHEIFEDPEWGEEFHKKIVEWIKKH	not failed

Sequence	protein production
RDIGKESLEKAPEVELVNSAEEGNAVVLDIRSPDEEDESPLEIVGVEVKHLPFYKLATQFGDLDQSKTYLLYCSRGVMSRLQALYLQEQGFNNVKVYR	failed
RDRSTIARIQFRLPDGSSFTNQFPSDAPLEEARQFAAQTVGNTYGNFSLATMFPRREFTREDYKRRLLDLELAPSASVVLLPAGRPATSIVHSSSGDILMID	not failed
RERLLSEAKATLQNYVAIAMTAIKPLYDAAAPGDEAARANAIKLLSAVSYGKDGYLFGYDSQVVRIFRSTSPDGLGKSFVDARDANGVYINR	failed
RERLRFERDHFRILVDVTNTVISKLELDVLAAEVSKEIHRFFNIDYISLAICGTHNDKNKLNVFSTRYQSGQAVQHQQTWVDMTGTLAGQVLHSRELLLVNLADIALLAPDDKQLASMLDAGLQAVCLLPLFFGHKMLGVLKLAQCQSDIFTGSNLKLLRQIAARIAIAVDNALAYNEITRLKDS	failed
RFEGGDHDLIPNNDAQNAAVNRALNAEDFALVHGPPGTGKTYTIATLVQAFVARGDRVLVSAFTNRAVDNALDALRQQGHEDIVRVGTETGVRADMQDLRLDRSGDPGERAAALRSAPVVAATTATCGSRILRELEFDVVLVDEASQLTEPDTLAAINRGARFVLVGDHEQ	failed
RIVLRREFEGNGILDGIGKKIEEGDYDIVEYNSDKWYQIHKYYSGIDNSLKGVYINISTPPELLRGKIRYLDLEIDIAIRDSEIALLDEDELNKKSIYMPSS	failed
RNRRREEAARHYLECVLDGLTTGVVVFDEKGRLKTFNKAAEQILGMPLAPLWGSSRHGWHGVSAQQSLLAEVFAAIGAAAGTDKPVQVEYAAPDDAKILLGKATVLPEDNGNGVVMVIDDIT	failed
RNVWVVAELDEQGVSEASLQMLTPARRIADKLGESVVGVIAGPPGSSQLAVEMVERGADEVIVVEHERLSEYYPDVVGSVIVELSLKYKPSVILFAATARGREMAPYVANTLKTGITADCTDFDVDPKTRDVLLIRPPFSAIMLAYIRTPFRRPQIGTARPNVFPLPERQPGRQGRIVREEVEPPEPMARLVNRV	not failed
RPQGLHLELETRLQKMYGIRQVIVVEATEPDDEESIKQAIGSAAAHYLETSLSAQDHIGISSWSSTIRAMVSHMHPQPGKQSAQEVVQLLGGVGNKGAFEATLLTQRLATLLNCPAFLLPSQSIEQSVESKQRIVEMEEVKEVLHRFDSITLAIVGIGELEPSQLLRNSGNYYTEDMLRVLAERGAVGDICLRYFDAQGKPVLEEDEEFVVSMGLGKLRSINRVLGLAGGVRKVQAIKGALLGGYLDVLITDVGTARGLGG	not failed
RRENHQTIQEFLERIHLQEYTSTLLLNGYETLDDLKDIKESHLIELNIADPEDRARLLSAAESLL	not failed
RSFGLIIPDLENTSYARLAKLIEQNSRKAGYQILIGCSDDDPETEKKVAEALISRRIDALFVASGMPSANEYYLKLQNSGTPVIALDRPMDDEHFCCVISEDFDAAFELTESVLSPEIKTIGLIGALQDLQVSKERELGFRSACQKDDTAMTVGYGLHFSREEGKKVLDKWVQADSLPDAIVTTSYTLLEGVLDVMLEKPELMSQVRLATFGDNRLLDFLPVKINSLPQQFELIADSAMELALNASAKRYKPGVELIPRKIVKRQ	failed
RSKTVILAKNLPAGTLAAEIQETFSRFGSLGRVLLPEGGITAIVEFLEPLEARKAFRHLAYSKFHHVPLYLEWAPIGVFGAAPQKKDSQHEQPAEKAE	not failed
SAQDEEDRVLIHFNVRDIKIGPECHDVQPPEGRSRDGLLTVNLREGGRLHLCAETKDDALAWKTALLEANSTPVRVYSPYQDYYEVVPPNAHEATYVRSYYGPPYAGPGVTHVIVREDPCYSAGAPLAMGMLAGAATGAALGSLMWSPCWF	failed
SAQSLSSEPDILFLDGWQLRYQAFAARADDPRPPVLLLGGAFQSFRSFTGEVSELLAEHPVILLDLPSQGGNLQLAAELSLEDLADLIAAFAEQLGLPPLMPIGLSYGSALAALFAARHPRRCARLLLAGITAFGRPGARLLLEEALARLDEGDQSAFAHGVLTGLINPLQLERTGVSPVFRKAMLRQLQRLTAAEIERYRQNSRRLLAFGGFERHPTCPTLVLAGEYDHFTQPWEHAVFAHACGNAEFALIHDADHLAQFERREACARLYGPFLRG	failed
SAWALKLPLADEVIESGLVQDFDASLSGIGQELGAGAYSMSDVLALPIFKQEESSLPPDNENKILPFQYVLCAATSPAVKLHDETLTYLNQGQSYEIRMLDNRKLGELPEINGKLVKSIFRVVFHDRRLQYTEHQQLEGWRWNRPGDRILDIDIPMSVGIIDPRANPTQLNTVEFLWDPAKRTSVFIQVHCISTEFTMRKHGGEKGVPFRVQIDTFKENENGEYTEHLHSASCQIKVFKPKGADRKQKTDREKMEKRTPHEKEKYQPSYETTILTECSPWPEITYVNNSPSPGFNSSHSSFSLGEGNGSPNHQPEPPPPVTDNLLPTTTPQEAQQWLHRNRFSTFTRLFTNFSGADLLKLTRDDVIQICGPADGIRLFNALKGRMVRPRLTIYVCQESLQLREQQQQQQQQQQKHEDGDSNGTFFVYHAIYLEELTAVELTEKIAQLFSISPCQISQIYKQGPTGIHVLISDEMIQNFQEEACFILDTMKAETNDSYHIILK	failed
SDIVRKTIDNDISTKWRLKTLSEKLNLSEVTIRKKLENENTNFYRILLDARMQKAARLVLDSDTHINKVSYAVGMSSVSYFIKLFSDYYGLTPKQFHLKYKHRNTGEKAAFMLYN	failed
